Measured values from patent publication US20240066131A1 (Protagonist Therapeutics, Inc., priority 2020, published 2024).
Starred links: 1 amine or outer side, 2 acyl side, 3 side chain; linkers in the order of their positions; H or OH if unused. Non-standard residues stand in square brackets, D forms with d. Groups on a side chain read outwards from the residue. No end group written: not given here. *: point of attachment. Carnitine = carnitine group on the Lys side chain, C[N+](C)(C)C[C@H](O)CC(=O)*; Ala(1H-tetrazol-5-yl) = N[C@@H](Cc1nnn[nH]1)C(=O)O; C18 diacid = O=C(O)CCCCCCCCCCCCCCCCC(=O)*; PeptoidIsovaleric Acid = not defined here; Dip = N[C@H](C(=O)O)C(c1ccccc1)c1ccccc1; γGlu = O=C(O)[C@H](CCC(=O)[*:2])N[*:1]; His(τ-Me) = Cn1cnc(C[C@H](N)C(=O)O)c1; NH(4-phenylbutyl) = c1ccc(CCCCN*)cc1; Palmitoyl = CCCCCCCCCCCCCCCC(=O)*; β3hF = N[C@H](CC(=O)O)Cc1ccccc1; NMeK = CN[C@@H](CCCCN)C(=O)O; Isovaleryl = CC(C)CC(=O)*; AEEA = NCCOCCOCC(=O)O; Ahx = NCCCCCC(=O)O

T1: human ferroportin (SLC40A1) fused in frame with GFP, stably expressed in HEK293 cells (human, UniProt Q9NP59 1-571)
T1 sequence (looked up): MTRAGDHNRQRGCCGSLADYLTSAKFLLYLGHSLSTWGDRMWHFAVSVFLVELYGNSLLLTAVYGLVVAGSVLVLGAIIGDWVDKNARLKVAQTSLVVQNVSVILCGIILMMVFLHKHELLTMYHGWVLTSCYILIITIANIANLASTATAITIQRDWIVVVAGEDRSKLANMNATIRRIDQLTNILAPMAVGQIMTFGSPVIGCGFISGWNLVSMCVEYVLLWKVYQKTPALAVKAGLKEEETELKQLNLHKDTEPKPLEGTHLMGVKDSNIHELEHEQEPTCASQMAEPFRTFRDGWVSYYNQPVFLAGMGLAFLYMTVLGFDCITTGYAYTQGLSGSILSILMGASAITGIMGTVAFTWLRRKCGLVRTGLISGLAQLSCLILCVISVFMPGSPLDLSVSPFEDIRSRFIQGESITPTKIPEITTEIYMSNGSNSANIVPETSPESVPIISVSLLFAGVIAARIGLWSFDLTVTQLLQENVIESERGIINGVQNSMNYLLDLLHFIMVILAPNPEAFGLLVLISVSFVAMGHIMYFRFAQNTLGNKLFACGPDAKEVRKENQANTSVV

T2: ferroportin endogenously expressed on T47D cells (HTB 133, ATCC) (human, UniProt Q9NP59 1-571)
T2 sequence (looked up): T1 sequence (looked up)

B1: Isovaleric Acid-E-T-H-[Dpa]-P-A-I-[(D)Lys]-[bhPhe]-[Lys(Ahx_Palm)]-[(D)Lys]-A-NH2 (peptide)
peptide: Isovaleryl-ETH[Dip]PAI[dK][β3hF]K([Ahx-Palmitoyl])[dK]A-NH2
SMILES: CCCCCCCCCCCCCCCC(=O)NCCCCCC(=O)NCCCC[C@H](NC(=O)C[C@H](Cc1ccccc1)NC(=O)[C@@H](CCCCN)NC(=O)[C@@H](NC(=O)[C@H](C)NC(=O)[C@@H]1CCCN1C(=O)[C@@H](NC(=O)[C@H](Cc1c[nH]cn1)NC(=O)[C@@H](NC(=O)[C@H](CCC(=O)O)NC(=O)CC(C)C)[C@@H](C)O)C(c1ccccc1)c1ccccc1)[C@@H](C)CC)C(=O)N[C@H](CCCCN)C(=O)N[C@@H](C)C(N)=O
B2: Isovaleric Acid-K-T-H-[Dpa]-P-A-I-E-[bhPhe]-[Lys(Ahx_Palm)]-R-NH2; (K and E cyclized) (peptide)
peptide: XKTHXPAIEXXR
modifications: N-term Isovaleric Acid; Dpa4; bhPhe9; Lys(Ahx_Palm)10; C-term NH2; K and E cyclized (lactam)
B3: Isovaleric Acid-[Tet1]-T-[(1Me)His]-[Dpa]-P-A-I-[(N-Me)Lys]-[bhPhe]-[Lys(Ahx_Palm)]-NH2 (peptide)
peptide: Isovaleryl-[Ala(1H-tetrazol-5-yl)]T[His(τ-Me)][Dip]PAI[NMeK][β3hF]K([Ahx-Palmitoyl])-NH2
SMILES: CCCCCCCCCCCCCCCC(=O)NCCCCCC(=O)NCCCC[C@H](NC(=O)C[C@H](Cc1ccccc1)NC(=O)[C@H](CCCCN)N(C)C(=O)[C@@H](NC(=O)[C@H](C)NC(=O)[C@@H]1CCCN1C(=O)[C@@H](NC(=O)[C@H](Cc1cn(C)cn1)NC(=O)[C@@H](NC(=O)[C@H](Cc1nnn[nH]1)NC(=O)CC(C)C)[C@@H](C)O)C(c1ccccc1)c1ccccc1)[C@@H](C)CC)C(N)=O
B4: Isovaleric Acid-E-T-H-F-P-A-I-[Lys(Ahx_Palm)]-F-E-P-R-S-K-G-A-K-NH2 (peptide)
peptide: Isovaleryl-ETHFPAIK([Ahx-Palmitoyl])FEPRSKGAK-NH2
SMILES: CCCCCCCCCCCCCCCC(=O)NCCCCCC(=O)NCCCC[C@H](NC(=O)[C@@H](NC(=O)[C@H](C)NC(=O)[C@@H]1CCCN1C(=O)[C@H](Cc1ccccc1)NC(=O)[C@H](Cc1c[nH]cn1)NC(=O)[C@@H](NC(=O)[C@H](CCC(=O)O)NC(=O)CC(C)C)[C@@H](C)O)[C@@H](C)CC)C(=O)N[C@@H](Cc1ccccc1)C(=O)N[C@@H](CCC(=O)O)C(=O)N1CCC[C@H]1C(=O)N[C@@H](CCCNC(=N)N)C(=O)N[C@@H](CO)C(=O)N[C@@H](CCCCN)C(=O)NCC(=O)N[C@@H](C)C(=O)N[C@@H](CCCCN)C(N)=O
B5: Isovaleric Acid-E-T-H-[Dpa]-A-A-I-[(D)Lys]-[bhPhe]-[Lys(Ahx_Palm)]-[(D)Lys]-A-NH2 (peptide)
peptide: Isovaleryl-ETH[Dip]AAI[dK][β3hF]K([Ahx-Palmitoyl])[dK]A-NH2
SMILES: CCCCCCCCCCCCCCCC(=O)NCCCCCC(=O)NCCCC[C@H](NC(=O)C[C@H](Cc1ccccc1)NC(=O)[C@@H](CCCCN)NC(=O)[C@@H](NC(=O)[C@H](C)NC(=O)[C@H](C)NC(=O)[C@@H](NC(=O)[C@H](Cc1c[nH]cn1)NC(=O)[C@@H](NC(=O)[C@H](CCC(=O)O)NC(=O)CC(C)C)[C@@H](C)O)C(c1ccccc1)c1ccccc1)[C@@H](C)CC)C(=O)N[C@H](CCCCN)C(=O)N[C@@H](C)C(N)=O
B6: Isovaleric Acid-E-T-H-A-P-A-I-[(D)Lys]-[bhPhe]-[Lys(Ahx_Palm)]-[(D)Lys]-A-NH2 (peptide)
peptide: Isovaleryl-ETHAPAI[dK][β3hF]K([Ahx-Palmitoyl])[dK]A-NH2
SMILES: CCCCCCCCCCCCCCCC(=O)NCCCCCC(=O)NCCCC[C@H](NC(=O)C[C@H](Cc1ccccc1)NC(=O)[C@@H](CCCCN)NC(=O)[C@@H](NC(=O)[C@H](C)NC(=O)[C@@H]1CCCN1C(=O)[C@H](C)NC(=O)[C@H](Cc1c[nH]cn1)NC(=O)[C@@H](NC(=O)[C@H](CCC(=O)O)NC(=O)CC(C)C)[C@@H](C)O)[C@@H](C)CC)C(=O)N[C@H](CCCCN)C(=O)N[C@@H](C)C(N)=O
B7: [Isovaleric Acid]-K-T-H-[Dpa]-P-A-[Lys(Carnitine)]-E-[N-MeLys(Ahx_Palm)]-[Phenylbutyl Amine] (peptide)
peptide: Isovaleryl-KTH[Dip]PAK(Carnitine)E[NMeK]([Ahx-Palmitoyl])-{NH(4-phenylbutyl)}
SMILES: CCCCCCCCCCCCCCCC(=O)NCCCCCC(=O)NCCCC[C@@H](C(=O)NCCCCc1ccccc1)N(C)C(=O)[C@H](CCC(=O)O)NC(=O)[C@H](CCCCNC(=O)C[C@@H](O)C[N+](C)(C)C)NC(=O)[C@H](C)NC(=O)[C@@H]1CCCN1C(=O)[C@@H](NC(=O)[C@H](Cc1c[nH]cn1)NC(=O)[C@@H](NC(=O)[C@H](CCCCN)NC(=O)CC(C)C)[C@@H](C)O)C(c1ccccc1)c1ccccc1

These binders were tested against T1, human ferroportin (SLC40A1) fused in … (assay: cell-based or functional assay).

| Binder | FPN EC50 [nM] |
| --- | --- |
| Isovaleryl-ETH[Dip]PAIK(Ac)[β3hF]-NH2 [Isovaleric Acid-E-T-H-[Dpa]-P-A-I-[Lys(Ac)]-[bhPhe]-NH2] | 175 |
| Isovaleryl-ETHFPAIK([AEEA-AEEA-Ahx-C18 diacid])FEPRSKGAK-NH2 [Isovaleric Acid-E-T-H-F-P-A-I-[Lys(1Peg2_1Peg2_Ahx_C18_Diacid)]-F-E-P-R-S-K-G-A-K-NH2] | 588 |
| B1 | 17.8 |
| Isovaleryl-ETHFPAIK([AEEA-AEEA-γGlu-C18 diacid])FEPRSKGAK-NH2 [Isovaleric Acid-E-T-H-F-P-A-I-[Lys(1PEG2_1PEG2_IsoGlu_C18_Diacid)]-F-E-P-R-S-K-G-A-K-NH2] | 2360 |
| DiIsoAmylAmine_CH2_Acid-TH[Dip]PAIK([Ahx-Palmitoyl])[β3hF][dK]-NH2 [[DiIsoAmylAmine_CH2_Acid]-T-H-[Dpa]-P-A-I-[Lys(Ahx_Palm)]-[bhPhe]-[(D)Lys]-NH2] | 25.9 |
| B2 | 13.8 |
| B3 | 23.9 |
| B4 | 177 |
| Isovaleryl-ETHFPAIK([γGlu-Palmitoyl])FEPRSKGAK-NH2 [Isovaleric Acid-E-T-H-F-P-A-I-[Lys(IsoGlu_Palm)]-F-E-P-R-S-K-G-A-K-NH2] | 280 |

Molecular target: T1, human ferroportin (SLC40A1) fused in …
Test: cell-based or functional assay
Remark: another data set of the same source

| Binder | FPN IC50 [nM] |
| --- | --- |
| Isovaleryl-K(Gal)TH[Dip]PAIK([Ahx-Palmitoyl])[β3hF]-NH2 [Isovaleric Acid-[Lys(Gal)]-T-H-[Dpa]-P-A-I-[Lys(Ahx_Palm)]-[bhPhe]-NH2] | 76 |
| Isovaleryl-ETH[Dip][dK](Gal)AIK([Ahx-Palmitoyl])[β3hF]-NH2 [Isovaleric Acid-E-T-H-[Dpa]-d[Lys(Gal)]-A-I-[Lys(Ahx_Palm)]-[bhPhe]-NH2] | 654 |
| Isovaleryl-[dK](Gal)TH[Dip]PAIK([Ahx-Palmitoyl])[β3hF]-NH2 [Isovaleric Acid-d[Lys(Gal-T-H-[Dpa]-P-A-I-[Lys(Ahx_Palm)]-[bhPhe]-NH2] | > 3000 |
| Isovaleryl-ETH[Dip]P[dK](Gal)IK([Ahx-Palmitoyl])[β3hF]-NH2 [Isovaleric Acid-E-T-H-[Dpa]-P-d[Lys(Gal)]-I-[Lys(Ahx_Palm)]-[bhPhe]-NH2] | 246 |
| B5 | 183 |
| B6 | > 3000 |
| {PeptoidIsovaleric Acid}-ETH[Dip]PAIK([Ahx-Palmitoyl])[β3hF]-NH2 (reading uncertain) [PeptoidIsovaleric Acid-E-T-H-[Dpa]-P-A-I-[Lys(Ahx_Palm)]-[bhPhe]-NH2] | 1120 |
| Isovaleryl-KTH[Dip]PAIK([Ahx-Palmitoyl])[β3hF] [Isovaleric Acid-K-T-H-[Dpa]-P-A-I-[Lys(Ahx_Palm)]-[bhPhe]] | 126 |
| Isovaleryl-ETH[Dip]PAIK([Ahx-Palmitoyl])[dK](Gal)-NH2 [Isovaleric Acid-E-T-H-[Dpa]-P-A-I-[Lys(Ahx_Palm)]-d[Lys(Gal-NH2] | 181 |
| K(Isovaleryl)TH[Dip]PAIK([Ahx-Palmitoyl])[bhF] (also: marks (1:1) at Lys1 and (1:2) at bhF9 not explained) [[Lys(IVA(1:1)-T-H-[Dpa]-P-A-I-[Lys(Ahx_Palm)]-bhF(1:2)] | 2150 |

Molecular target: T1, human ferroportin (SLC40A1) fused in …
Test: cell-based or functional assay
Remark: another data set of the same source

| Binder | IC50: FPN internalisation [nM] |
| --- | --- |
| B7 | 5.9 |
| XETHXPXX (N-term Isovaleric Acid; Dpa4; Lys(Ahx_Palm)6; C-term Phenylbutyl Amine) [[Isovaleric Acid]-E-T-H-[Dpa]-P-[Lys(Ahx_Palm)]-[Phenylbutyl Amine]] | 5.41 |

Each binder was assayed against T2, ferroportin endogenously expressed on … (assay: cell-based or functional assay).

| Binder | T47D MSA IC50 [nM] |
| --- | --- |
| Isovaleryl-ETH[Dip]PAIK(Ac)[β3hF]-NH2 [Isovaleric Acid-E-T-H-[Dpa]-P-A-I-[Lys(Ac)]-[bhPhe]-NH2] | 355 |
| Isovaleryl-ETHFPAIK([AEEA-AEEA-Ahx-C18 diacid])FEPRSKGAK-NH2 [Isovaleric Acid-E-T-H-F-P-A-I-[Lys(1Peg2_1Peg2_Ahx_C18_Diacid)]-F-E-P-R-S-K-G-A-K-NH2] | 261 |
| B1 | 5.97 |
| Isovaleryl-ETHFPAIK([AEEA-AEEA-γGlu-C18 diacid])FEPRSKGAK-NH2 [Isovaleric Acid-E-T-H-F-P-A-I-[Lys(1PEG2_1PEG2_IsoGlu_C18_Diacid)]-F-E-P-R-S-K-G-A-K-NH2] | 3440 |
| DiIsoAmylAmine_CH2_Acid-TH[Dip]PAIK([Ahx-Palmitoyl])[β3hF][dK]-NH2 [[DiIsoAmylAmine_CH2_Acid]-T-H-[Dpa]-P-A-I-[Lys(Ahx_Palm)]-[bhPhe]-[(D)Lys]-NH2] | 52.9 |
| B2 | 1.74 |
| B3 | 3.94 |
| B4 | 11.4 |
| Isovaleryl-ETHFPAIK([γGlu-Palmitoyl])FEPRSKGAK-NH2 [Isovaleric Acid-E-T-H-F-P-A-I-[Lys(IsoGlu_Palm)]-F-E-P-R-S-K-G-A-K-NH2] | 289 |
